Laboratory results taken from patent US7708999B2, “Remedies for arthritis” (Kyowa Hakko Kirin Co., Ltd., priority 2001, dated 2010).

T1: FGF-8 (Homo sapiens, UniProt P55075)
T1 construct: purchased R & D
T1 sequence (P55075 23-215 isoform P55075-3 limits assumed): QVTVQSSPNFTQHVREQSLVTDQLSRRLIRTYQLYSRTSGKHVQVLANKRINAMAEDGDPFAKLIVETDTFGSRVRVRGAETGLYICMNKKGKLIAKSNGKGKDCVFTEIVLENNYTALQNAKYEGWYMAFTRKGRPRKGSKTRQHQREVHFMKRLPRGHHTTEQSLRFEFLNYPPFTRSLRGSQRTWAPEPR

T2: compound 1 as a partial peptide of FGF-8 (Homo sapiens, UniProt P55075)
T2 construct: 17; made in house; host or cells: chemical synthesis
T2 sequence (P55075 with tags, fused parts or gaps isoform P55075-3 limits assumed): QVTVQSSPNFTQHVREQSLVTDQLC


Key:
FGF-8 [1] = target: T1, FGF-8; test: FGF-8 binding activity by BIAcore 2000, immobilized FGF-8; conditions: antibody 50 μg/mL; FGF-8 immobilized 4498 RU
Method: In order to examine the FGF-8 binding activity of the various anti-FGF-8 neutralizing CDR-grafted antibodies obtained in 4. of Reference Example 2 in more detail, the FGF-8 binding activity of the various anti-FGF-8 neutralizing CDR-grafted antibodies was measured and compared in the following manner using BIAcore2000 (manufactured by BIACORE). The YB2/0 cell-derived anti-FGF-8 neutralizing chimeric antibody KM3334 obtained in 3.(2) of Reference Example 1 was used as a positive control.
HBS-EP (manufactured by BIACORE) was used hereinafter as a sample diluent and a buffer during measurement. First, Sensor Chip CM5 (manufactured by BIACORE) was installed, and FGF-8 (manufactured by R & D) dissolved in 31.25 μg/mL of 10 mmol/L acetate buffer solution (pH 4.0) was immobilized on the surface of the sensor chip by the amine coupling method. The immobilization amount measured by using a resonance signal (RU) as an index was 4498 RU.
60 μL of each of the antibody solutions was added to an FGF-8 immobilized flow cell at a flow rate of 20 μL/min, and the dissociation reaction was then monitored for 3 minutes. After the dissociation reaction, 20 μL of a 10 mmol/L glycine-hydrochloride solution (pH 1.5) was added to the flow cell twice continuously to regenerate the surface of the chip. This cycle was performed with the antibody solution at various concentrations (from 50 to 0.068 μg/mL) to obtain sensor grams at various concentrations. The sensor grams of the respective antibodies were converted to sensor grams of specific reactions by deducing a sensor gram obtained using chimeric antibody KM871 (Shitara K. et al., Cancer Immunol. Immunother., 36, 373-380, 1993) to GD3 as a negative control. […] Accordingly, the binding activity of the various antibodies was compared in terms of the binding [resonance signal (RU)] in the binding reaction. […] The effect of restoring the binding activity was not observed in the 6 amino acid residues of FR of VH.

[2] = target: T2, compound 1 as a partial peptide of FGF-8; test: FGF-8 binding activity by BIAcore 2000, immobilized biotin-labeled compound 1; conditions: antibody 16.7 μg/mL; FGF-8 peptide immobilized 35 RU
Method: In order to examine the FGF-8 binding activity of the anti-FGF-8 neutralizing CDR-grafted antibodies obtained in 5. of Reference Example 3, the FGF-8 binding activity of the various anti-FGF-8 neutralizing CDR-grafted antibodies was measured and compared through BIAcore 2000 using compound 1 as a partial peptide of FGF-8 with the C terminal labeled with biotin in the following manner. The anti-FGF-8 neutralizing chimeric antibody KM3034 derived from CHO/DG44 cells obtained in 3. (1) of Reference Example 1 was used as a positive control.
HBS-EP was used as a sample diluent and a buffer during measurement. First, Sensor Chip SA (manufactured by BIACORE) was installed, and 5 μL of compound 1 labeled with biotin which had been adjusted to 0.05 μg/mL was added at a flow rate of 5 μL/min. Then, 5 μL of a 10 mmol/L glycine-hydrochloride solution (pH 1.5) was added twice continuously to wash the tip surface. The immobilization amount of the FGF-8 peptide was 35 RU.
60 μL of each of the antibody solutions was added to an FGF-8 peptide immobilized flow cell at a flow rate of 20 μL/min, and the dissociation reaction was then monitored for 3 minutes. After the dissociation reaction, 20 μL of 10 mmol/L glycine-hydrochloride solution (pH 1.5) was added twice continuously to regenerate the chip surface. This cycle was performed on the antibody solution at various concentrations (from 50 to 1.85 μg/mL) to obtain sensor grams at various concentrations. The sensor grams of the respective antibodies were converted to sensor grams of specific reactions by deduceing a sensor gram obtained using the chimeric antibody KM871 to GD3 as a negative control.

FGF-8 [3] = target: T1, FGF-8; test: FGF-8 neutralizing activity: FGF-8-dependent growth of mouse breast cancer cell line SC-3; type: cell-based; conditions: SC-3 cells, FGF-8 50 ng/mL, WST-1
Method: The FGF-8 neutralizing activity of the purified anti-FGF-8 neutralizing chimeric antibody was evaluated by measured the following FGF-8-dependent growth inhibitory effect of mouse breast cancer cell line SC-3 (Tanaka A. et al., Proc. Natl. Acad. Sci. USA, 89, 8928-8932, 1992) described below. That is, SC-3 cells were suspended at a concentration of 3.0×10^4 cells/mL in DMEM:Ham's F12 (1:1) medium [a mixed medium of DMEM medium and Ham's F12 medium (manufactured by Invitrogen) at a ratio of 1:1] containing activated charcoal-treated FBS at a concentration of 2%. The suspension was inoculated on a 96-well plate in an amount of 150 μL (4.5×10^3 cells)/well. After the culturing in a 5% CO2 incubator at 37° C. for 18 hours, the medium was replaced with 100 μL/well of a test medium. The test medium was produced by dissolving 50 ng/mL of FGF-8 (manufactured by R & D) and the anti-FGF-8 neutralizing chimeric antibody at each dilute concentration in DMEM:Ham's F12 (1:1) medium containing 0.1% BSA. The chimeric antibody KM2760 to human chemokine CCR4 described in WO 01/64754 was used as an antibody of a negative control. After the culturing in a 5% CO2 incubator at 37° C. for 48 hours, the medium was replaced with a freshly prepared test medium, and the culturing was further performed for 48 hours. WST-1 Reagent (manufactured by Roche) was added in an amount of 10 μL/well, and the mixture was culturing in a 5% CO2 incubator at 37° C. for 1 hour while being gently stirred. Then, absorbance (OD450,650) was measured. In FIG. 21, the abscissa represents a concentration of an antibody added, and the ordinate represents relative growth (%) to growth when adding 50 ng/mL of FGF-8 alone. The relative growth (%) to growth when adding 50 ng/mL of FGF-8 alone was calculated by the following formula. Relative growth (%) to growth when adding FGF-8={(Absorbance when adding FGF-8 and antibody−Absorbance when not adding FGF-8 and antibody)/(Absorbance when adding FGF-8 alone−Absorbance when not adding FGF-8 and antibody)}×100

Row | Molecule | binding reaction [resonance signal (RU)] (FGF-8 [1]) | binding reaction [resonance signal (RU)] [2] | FGF-8 neutralizing activity (SC-3 cell growth inhibitory activity) (FGF-8 [3])
1 | HV0LV4-3/CHO: CHO/DG44 cell-derived anti-FGF-8 neutralizing CDR-grafted antibody, VH HV.0, VL LV.4-3 (SEQ ID NO. 50) (antibody, V domains shown) VH: QVQLVQSGAEVKKPGASVKVSCKASGYTFTDYYLNWVRQAPGQGLEWMGEIDPGSDSIYYNENLEGRVTITADTSTSTAYMELSSLRSEDTAVYYCARYGYSRYDVRFVYWGQGTLVTVSS VL: DIVMTQSPLSLPVSLGEPASISCRSSQSLVHSNGRTYLEWYLQKPGQSPQVLIYKVSNRISGVPDRFSGSGSGTDFTLKISRVEAEDVGVYFCFQGSHVPYTFGQGTKVEIK | – | the higher binding reaction than that of the HV0LV3-1/CHO and similar to that of the HV0LV6/CHO | approximately half that of the chimeric antibody KM3034
2 | HV0LV3-1/CHO: CHO/DG44 cell-derived anti-FGF-8 neutralizing CDR-grafted antibody, VH HV.0, VL LV.3-1 (SEQ ID NO. 44) (antibody, V domains shown) VH: QVQLVQSGAEVKKPGASVKVSCKASGYTFTDYYLNWVRQAPGQGLEWMGEIDPGSDSIYYNENLEGRVTITADTSTSTAYMELSSLRSEDTAVYYCARYGYSRYDVRFVYWGQGTLVTVSS VL: DVVMTQSPLSLPVTPGEPASISCRSSQSLVHSNGRTYLEWYLQKPGQSPQVLIYKVSNRISGVPDRFSGSGSGTDFTLKISRVEAEDVGVYFCFQGSHVPYTFGQGTKVEIK | – | the higher binding reaction | the next high FGF-8 neutralizing activity
3 | HV0LV2-1/CHO: CHO/DG44 cell-derived anti-FGF-8 neutralizing CDR-grafted antibody, VH HV.0, VL LV.2-1 (SEQ ID NO. 46) (antibody, V domains shown) VH: QVQLVQSGAEVKKPGASVKVSCKASGYTFTDYYLNWVRQAPGQGLEWMGEIDPGSDSIYYNENLEGRVTITADTSTSTAYMELSSLRSEDTAVYYCARYGYSRYDVRFVYWGQGTLVTVSS VL: DIVMTQSPLSLPVTPGEPASISCRSSQSLVHSNGRTYLEWYLQKPGQSPQVLIYKVSNRISGVPDRFSGSGSGTDFTLKISRVEAEDVGVYFCFQGSHVPYTFGQGTKVEIK | – | the higher binding reaction | the lowest neutralizing activity

More lines, main results first:

Row | binding reaction [resonance signal (RU)] (FGF-8 [1]) | binding reaction [resonance signal (RU)] [2] | Molecule | FGF-8 neutralizing activity (SC-3 cell growth inhibitory activity) (FGF-8 [3])
4 | the highest binding reaction | – | KM3334: anti-FGF-8 neutralizing human chimeric antibody, VH SEQ ID NO. 5, VL SEQ ID NO. 6, human γ1/κ, YB2/0 cell-derived (antibody, listed as Mus musculus, V domains shown) VH: QVQLQQSGAEVARPGASVKLSCKASGYTFTDYYLNWVKQRSGQGLEWIGEIDPGSDSIYYNENLEGRATLTADKSSSTAYMQLNSLTSEDSAVYFCARYGYSRYDVRFVYWGQGTLVTVST VL: DVLMTQTPLSLPVSLGDQASISCRSSQSLVHSNGRTYLEWYLQKPGQSPKVLIYKVSNRISGVPDRFSGSGSGTDFTLKISRVEAEDLGVYFCFQGSHVPYTFGGGTKLEIK | –
5 | – | lower than that of the HV0LV3-1 | HV0LV3-3/CHO: CHO/DG44 cell-derived anti-FGF-8 neutralizing CDR-grafted antibody, VH HV.0, VL LV.3-3 (SEQ ID NO. 51) (antibody, V domains shown) VH: QVQLVQSGAEVKKPGASVKVSCKASGYTFTDYYLNWVRQAPGQGLEWMGEIDPGSDSIYYNENLEGRVTITADTSTSTAYMELSSLRSEDTAVYYCARYGYSRYDVRFVYWGQGTLVTVSS VL: DIVMTQSPLSLPVSLGEPASISCRSSQSLVHSNGRTYLEWYLQKPGQSPQVLIYKVSNRISGVPDRFSGSGSGTDFTLKISRVEAEDVGVYYCFQGSHVPYTFGQGTKVEIK | approximately half that of the chimeric antibody KM3034
6 | the same high binding reaction as KM3334 | – | HV0LV6: YB2/0 cell-derived anti-FGF-8 neutralizing CDR-grafted antibody, VH HV.0 (SEQ ID NO. 18), VL LV.6 (SEQ ID NO. 21) (antibody, V domains shown, HV.0, a designed amino acid sequence of VH of an anti-FGF-8 CDR-grafted neutralizing antibody; LV.6, a designed amino acid sequence of VL of an anti-FGF-8 CDR-grafted neutralizing antibody) VH: QVQLVQSGAEVKKPGASVKVSCKASGYTFTDYYLNWVRQAPGQGLEWMGEIDPGSDSIYYNENLEGRVTITADTSTSTAYMELSSLRSEDTAVYYCARYGYSRYDVRFVYWGQGTLVTVSS VL: DVVMTQSPLSLPVSLGEPASISCRSSQSLVHSNGRTYLEWYLQKPGQSPKVLIYKVSNRISGVPDRFSGSGSGTDFTLKISRVEAEDVGVYFCFQGSHVPYTFGQGTKVEIK | –
7 | – | the higher binding reaction | HV0LV4-1/CHO: CHO/DG44 cell-derived anti-FGF-8 neutralizing CDR-grafted antibody, VH HV.0, VL LV.4-1 (SEQ ID NO. 42) (antibody, V domains shown) VH: QVQLVQSGAEVKKPGASVKVSCKASGYTFTDYYLNWVRQAPGQGLEWMGEIDPGSDSIYYNENLEGRVTITADTSTSTAYMELSSLRSEDTAVYYCARYGYSRYDVRFVYWGQGTLVTVSS VL: DVVMTQSPLSLPVTPGEPASISCRSSQSLVHSNGRTYLEWYLQKPGQSPKVLIYKVSNRISGVPDRFSGSGSGTDFTLKISRVEAEDVGVYFCFQGSHVPYTFGQGTKVEIK | slightly lower FGF-8 neutralizing activity than the HV0LV3-1/CHO
